Assay results reported in article PMC7616783, “A combined structural and biochemical approach reveals translocation and stalling of UvrB on the DNA lesion as a mechanism of damage verification in bacterial nucleotide excision repair” (DNA repair, 2019).

B1: Thermus thermophilus UvrB (natural protein, UniProt Q56243 1-665, looked up)
chain: MTFRYRGPSPKGDQPKAIAGLVEALRDGERFVTLLGATGTGKTVTMAKVIEALGRPALVLAPNKILAAQLAAEFRELFPENAVEYFISYYDYYQPEAYVPGKDLYIEKDASINPEIERLRHSTTRSLLTRRDVIVVASVSAIYGLGDPREYRARNLVVERGKPYPREVLLERLLELGYQRNDIDLSPGRFRAKGEVLEIFPAYETEPIRVELFGDEVERISQVHPVTGERLRELPGFVLFPATHYLSPEGLEEILKEIEKELWERVRYFEERGEVLYAQRLKERTLYDLEMLRVMGTCPGVENYARYFTGKAPGEPPYTLLDYFPEDFLVFLDESHVTVPQLQGMYRGDYARKKTLVDYGFRLPSALDNRPLRFEEFLERVSQVVFVSATPGPFELAHSGRVVEQIIRPTGLLDPLVRVKPTENQILDLMEGIRERAARGERTLVTVLTVRMAEELTSFLVEHGIRARYLHHELDAFERQALIRDLRLGHYDCLVGINLLREGLDIPEVSLVAILDADKEGFLRSERSLIQTIGRAARNARGEVWLYADRVSEAMQRAIEETNRRRALQEAYNLEHGITPETVRKEVRAVIRPEGYEEAPLEADLSGEDLRERIAELELAMWQAAEALDFERAARLRDEIRALEARLQGVRAPEPVPGGRKRKRR
notes: theoretical MW printed as 76.2 kDa; Two UvrB monomers stand in the complex, one on each side of the UvrA dimer; The complex is heterologous (T. maritima UvrA with T. thermophilus UvrB); also called Tt-UvrB; Thermus thermophilus (Tt) UvrB; source: BL21-CodonPlus(DE3)-RIL, pET28 based plasmid, purified (nickel resin, HRV 3C digestion, nickel resin, gel filtration)
B2: Thermotoga maritima UvrA (natural protein)
chain: MNEIVVKGARVHNLKNITVRIPKNRLVVITGVSGSGKSSLAMDTIYAEGQRRYLESLSTYARQFLGNLKKPDVDEIEGLSPAIAIDQKTVSHNPRSTVGTVTEIYDYLRVLYARIGKAHCPECGRPLEKKSIDEILQDLFNSFKEGSRIYILAPVATEKKGTFKKEIEEFISKGFARIEIDGEIYRLEEVPELDKNKRHTVKLVVDRLILETRNEHRILDSLELAMREGKGFVEIRNVDTGESKIFSENLMCPVCGIGFPEITPKLFSFNSPYGACPNCHGLGFTFEVDPSLVIDEEKSVLEGAIIPYRWDRRLSRWVAREIEKRGVSPHLPFKDLPEDVKEFILYGDDRFEGVVPKVQRWHRETESPEMKEWLEKNFIVQRTCSVCGGRRLNREALSVKINGLNIHEFTELSISEELEFLKNLNLTEREREIVGELLKEIEKRLEFLVDVGLEYLTLSRSATTLSGGESQRIRLATQIGSGLTGVIYVLDEPTIGLHPRDTERLIKTLKKLRDLGNTVIVVEHDEEVIRNADHIIDIGPGGGTNGGRVVFQGTVDELLKNPDSSLTGEYLSGKRKITVNKTRRLPYASLKIKGVRHNNLKNIDVEIPLGVFVCVTGVSGSGKSSLVMETLYPALMNLLHKTKLPAGEFDSIEGHENIDKMIAIDQSPIGRTPRSNPATYTKVFDEIRSLFAMTPAAKARGYNKSRFSFNLKGGRCEACQGQGYVKIEMLFLPDVYVECDVCKGKRYNRETLEITYKGKNISDILDMTVDEALEFFKNIPSIKRTLQVLHDVGLGYVKLGQPATTLSGGEAQRIKLASELRKRDTGRTLYILDEPTVGLHFEDVRKLVEVLHRLVDRGNTVIVIEHNLDVIKNADHIIDLGPEGGKEGGYIVATGTPEEIAKNPHSYTGRFLKNVL
notes: UvrA, Thermotoga maritima; theoretical MW of the dimer printed as 205.8 kDa; the modelling section counts residues 1-916; In the assays it stood with fluorescein-modified DNA, ADP and Mg2+; also called Tm-UvrA; T. maritima (Tm) UvrA; source: BL21 STAR (DE3), pET28-SUMO based plasmid, purified (nickel resin, Ulp1 digestion, nickel resin, gel filtration)

How the values were obtained:
[1] = target: B2; test: SEC-MALS; UvrA dimer (2.5 mg/ml) mixed 1:1 with self-annealed DNA (32 bp ds region, two fluorescein-modified thymines, 10 nt 5' overhangs), UvrB at two-fold molar excess over the UvrA dimer; dialysed at 4 °C against 20 mM HEPES pH 7.0, 150 mM NaCl, 5% glycerol, 1 mM DTT, 10 mM MgCl2; 1 mM ADP added; BioSuite High Resolution SEC column with MALS detector; details: both partners purified
[2] = target: the molecule itself; test: as above

B1
stoichiometry N [1]: 2 UvrB per UvrA dimer

B2
stoichiometry N [2]: 2
